# Experimental data: US20230357364A1 (INTERNATIONAL AIDS VACCINE INITIATIVE, published 2023)
# Substitutions are numbered along the chain they refer to.
# B1: L6.dP04A03 (antibody, V domains shown)
# VH: QVQLVQSGAEVKKPGSSVKVSCKASGGTFSSSAISWVRQAPGQGLEWMGGIIPILDITNYAQKFQGRVTITADKSTSTAFMELSSLRSEDTAVYYCALRNQWDLLVYWGQGTLVTVSS
# VL: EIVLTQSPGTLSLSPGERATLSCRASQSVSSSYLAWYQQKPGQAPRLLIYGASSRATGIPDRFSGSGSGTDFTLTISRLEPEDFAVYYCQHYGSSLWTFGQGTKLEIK
# B2: L6.dP03H10 (antibody, V domains shown)
# VH: QVQLVQSGAEVKKPGSSVKVSCKASGGTFSIYAITWVRQAPGQGLEWMGGIIPIIGTANYAQKFQGRVTITADKSTSTAYMELSSLRSEDTAVYYCARDFRYCSSTRCYFWFDPWGQGTLVTVSS
# VL: DIQMTQSPSSLSASVGDRVTITCRASQNISSYLNWYQQEAGKAPKLLIYAASSLQSGVPSRFSGSGSGTDFTLTISSLQPEDFATYYCQQSYSTPRTFGQGTKVDIK
# B3: L6.dP02E05 (antibody, V domains shown)
# VH: QVQLVQSGSELKKPGASVKVSCKASGYTFATYALNWVRQAPGQGLEWMGWVNTNTGSPTYAQGFTGRFVFSFDTSVSTAYLQIRTLKAEDTAVYYCAVYYYDSGSPGWFDPWGQGTLVTVSS
# VL: B2 VL with M4L, N28T, I29A, E39K, A40P, K45N, G68V, R96P
# notes: human IgG1
# B4: L6.dP04E05 (antibody, V domains shown)
# VH: EVQLVESGGGLVQPGRSLRLSCAASGFTFDDYAMHWVRQAPGKGLEWVSGISWNSDNIGYADSVKGRFTVSRDNAKNSLYLQMNSLRAEDTALYYCTKDIHRKNDYYDILTGYYRVRYYYYAMDVWGQGTTVTVSS
# VL: QSVLTQPPSASGSPGQSVTISCTGTSSDAGGYNYVSWYQQHPGKAPKLMIYEVIKRPSGVPDRFSGSKSGNTASLTVSGLQAEDEADYYCSSFAGTSVVFGGGTKLTVL
# notes: human IgG1
# B5: L6.P4A3.1 (antibody, V domains shown)
# VH: B1 VH with T28I, T58S, R99T
# VL: EIVLTQSPGTLSLSPGERATLSCRASQRVSSSYLAWYQQKPGQAPRLLIYGAESRATGIPDRFSGSGSGTDFTLTISRLEPEDFAVYYCQHYGSSLWTFGQGTKLEIK
# Target: T1, SARS-CoV-2 spike D614G (pseudovirus) (SARS-CoV-2, UniProt P0DTC2 14-1273)
# Experiment: cell-based or functional assay
row,Binder,neutralization IC50
1,B1,24 ng/mL
2,B2,1.9 ng/mL
3,B3,3.9 ng/mL
4,B4,0.52 ng/mL

# Target: SARS-CoV-2 spike V367F (pseudovirus) (SARS-CoV-2, UniProt P0DTC2 14-1273)
# Experiment: cell-based or functional assay
row,Binder,neutralization IC50
1,B2,0.25 ng/mL
2,B3,0.04 ng/mL
3,B4,0.07 ng/mL

# Target: SARS-CoV-2 spike G476S (pseudovirus) (SARS-CoV-2, UniProt P0DTC2 14-1273)
# Experiment: cell-based or functional assay
row,Binder,neutralization IC50
1,B1,84 ng/mL
2,B2,0.08 ng/mL
3,B4,0.16 ng/mL

# Target: SARS-CoV-2 spike V483A (pseudovirus) (SARS-CoV-2, UniProt P0DTC2 14-1273)
# Experiment: cell-based or functional assay
row,Binder,neutralization IC50
1,B1,160 ng/mL
2,B2,1.9 ng/mL
3,B3,3.9 ng/mL
4,B4,0.55 ng/mL

# Target: T1, SARS-CoV-2 spike D614G (pseudovirus)
# Experiment: cell-based or functional assay
# Remark: another data set of the same source
row,Binder,PSV in HeLa-ACE2 cells IC50
1,B5,13 ng/mL
2,B4,8 ng/mL
